Common to all, as to experiment: FACS staining of transfected 293 cells with Fc fusion protein, labeled anti-human IgG Fc detection
Assay [1] has as its target T1, mCD28-huFC (extracellular region of murine CD28 fused to a human Fc region from an IgG1 antibody) (murine; human, UniProt P31041 20-150; P01857 100-330 = IgG part).
T1 construct: extracellular domain;domain: Fc region; Bought from R & D Systems
The protocol: (§1) Full length versions of each of three murine cDNAs (encoding BTL-II, B7RP-1, CD80) were inserted into a vector appropriate for expression. About 10 μg of each of these constructs, along with an empty vector, were used separately to transfect 293 cells. Two days post transfection, about one million cells from each of the four transfections were stained with each of the fusion proteins described above. Bound protein was detected using a fluorescently labeled antibody against the human IgG Fc region. The stained cells were analyzed by FACS.

The target in assay [2] is T2, CTLA4-huFC (extracellular region of murine CTLA4 fused to a human Fc region of an IgG1 antibody) (murine; human, UniProt P09793 36-161; P01857 99-330 = IgG part, limits assumed).
T2 construct: extracellular domain;domain: Fc region; Made in transfected cells and purified by Protein A chromatography
T2 sequence (P09793 other isoform, or with tags, fused parts or gaps limits assumed): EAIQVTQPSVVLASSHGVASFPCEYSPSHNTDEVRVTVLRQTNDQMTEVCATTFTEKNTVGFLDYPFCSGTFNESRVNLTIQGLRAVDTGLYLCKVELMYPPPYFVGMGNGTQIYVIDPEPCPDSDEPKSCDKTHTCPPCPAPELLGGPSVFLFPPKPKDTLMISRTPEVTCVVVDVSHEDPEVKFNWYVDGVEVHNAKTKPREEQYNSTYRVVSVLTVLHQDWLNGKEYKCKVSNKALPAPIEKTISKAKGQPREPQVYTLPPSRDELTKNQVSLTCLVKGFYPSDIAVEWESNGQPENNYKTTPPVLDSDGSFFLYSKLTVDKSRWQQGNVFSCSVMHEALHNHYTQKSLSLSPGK
As for the experimental part: as §1

Assay [3] addresses T3, ICOS-huFC (extracellular region of murine ICOS fused to a human Fc region from an IgG1 antibody) (murine; human, UniProt Q9WVS0 21-144; P01857 99-330 = IgG part, limits assumed).
T3 construct: extracellular domain;domain: Fc region; Made in transfected cells and purified by Protein A chromatography
The protocol:
as §1

Assay [4] addresses T4, PD1-huFC (extracellular region of murine PD-1 fused to a human Fc region of an IgG1 antibody) (murine; human, UniProt Q02242 25-169; P01857 100-330 = IgG part).
T4 construct: extracellular domain;domain: Fc region; Bought from R & D Systems
The protocol: as §1

T1 sequence (P31041 other isoform, or with tags, fused parts or gaps limits assumed): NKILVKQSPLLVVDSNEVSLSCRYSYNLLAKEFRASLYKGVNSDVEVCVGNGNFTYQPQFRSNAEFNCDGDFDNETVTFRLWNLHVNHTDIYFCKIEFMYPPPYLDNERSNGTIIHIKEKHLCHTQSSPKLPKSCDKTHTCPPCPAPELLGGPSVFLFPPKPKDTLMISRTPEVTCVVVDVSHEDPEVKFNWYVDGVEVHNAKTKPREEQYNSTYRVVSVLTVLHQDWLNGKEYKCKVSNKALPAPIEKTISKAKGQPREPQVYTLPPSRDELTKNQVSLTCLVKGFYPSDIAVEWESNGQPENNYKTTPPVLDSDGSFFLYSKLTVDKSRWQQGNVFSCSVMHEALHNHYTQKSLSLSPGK
T3 sequence (Q9WVS0 other isoform, or with tags, fused parts or gaps limits assumed): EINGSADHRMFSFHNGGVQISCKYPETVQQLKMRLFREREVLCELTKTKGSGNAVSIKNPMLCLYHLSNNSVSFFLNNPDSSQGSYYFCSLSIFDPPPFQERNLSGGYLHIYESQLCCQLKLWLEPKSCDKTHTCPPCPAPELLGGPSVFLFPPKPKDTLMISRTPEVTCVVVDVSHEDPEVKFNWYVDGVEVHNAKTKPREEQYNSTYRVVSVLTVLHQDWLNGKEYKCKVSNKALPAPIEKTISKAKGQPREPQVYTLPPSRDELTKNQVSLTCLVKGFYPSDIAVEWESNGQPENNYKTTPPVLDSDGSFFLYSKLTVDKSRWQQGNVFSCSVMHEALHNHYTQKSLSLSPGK
T4 sequence (Q02242 other isoform, or with tags, fused parts or gaps limits assumed): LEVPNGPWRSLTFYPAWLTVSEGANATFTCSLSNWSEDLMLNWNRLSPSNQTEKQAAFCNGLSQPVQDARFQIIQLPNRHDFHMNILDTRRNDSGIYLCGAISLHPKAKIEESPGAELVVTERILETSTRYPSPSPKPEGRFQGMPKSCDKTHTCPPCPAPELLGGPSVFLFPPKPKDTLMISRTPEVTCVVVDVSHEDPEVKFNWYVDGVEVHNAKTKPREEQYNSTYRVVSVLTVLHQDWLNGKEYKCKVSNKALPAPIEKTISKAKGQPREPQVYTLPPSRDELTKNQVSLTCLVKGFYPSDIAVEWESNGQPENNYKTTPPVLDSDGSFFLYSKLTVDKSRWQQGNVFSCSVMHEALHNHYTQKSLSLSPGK

B1: murine B7RP-1 (full length, expressed on transfected 293 cells) (ligand, UniProt Q9JHJ8 44-322, looked up)
chain: ASAETEVGAMVGSNVVLSCIDPHRRHFNLSGLYVYWQIENPEVSVTYYLPYKSPGINVDSSYKNRGHLSLDSMKQGNFSLYLKNVTPQDTQEFTCRVFMNTATELVKILEEVVRLRVAANFSTPVISTSDSSNPGQERTYTCMSKNGYPEPNLYWINTTDNSLIDTALQNNTVYLNKLGLYDVISTLRLPWTSRGDVLCCVENVALHQNITSISQAESFTGNNTKNPQETHNNELKVLVPVLAVLAAAAFVSFIIYRRTRPHRSYTGPKTVQLELTDHA
notes: whole, on cells; also called B7h; B7-H2
On to B1, for which the binding result in assay [1] is “no binding”; in assay [2], “no binding”; in assay [3] it was “binds”; in assay [4] it was “no binding”.

B2: murine BTL-II (full length, expressed on transfected 293 cells) (ligand)
chain: FRVVGPNLPILAKVGEDALLTCQLLPKRTTAHMEVRWYRSDPAMPVIMYRDGAVVTGLPMEGYGGRAEWMEDSTEEGSVALKIRQVQPSDDGQYWCRFQEGDYWRETSVLLQVAALGSSPNIHVEGLGEGEVQLVCTSRGWFPEPEVHWEGIWGEKLMSFSENHVPGEDGLFYVEDTLMVRNDSVETISCFIYSHGLRETQEATIALSERLQTELVSVSVIGHSQPSPVQVGENIELTCHLSPQTDAQNLEVRWLRSRYYPAVHVYANGTHVAGEQMVEYKGRTSLVTDAIHEGKLTLQIHNARTSDEGQYRCLFGKDGVYQEARVDVQVTAVGSTPRITREVLKDGGMQLRCTSDGWFPRPHVQWRDRDGKTMPSFSEAFQQGSQELFQVETLLLVTNGSMVNVTCSISLPLGQEKTARFPLSDSKIALLWMTLPVVVLPLAMAMDLIKVKRRRRTNEQTHSSNQENNKNDENHRRRLPSDERLR
Regarding B2, the binding result in assay [1], in assay [2], in assay [3] and in assay [4] was “no binding” each time.

B3: murine CD80 (full length, expressed on transfected 293 cells) (ligand, UniProt Q00609 38-306, looked up)
chain: VDEQLSKSVKDKVLLPCRYNSPHEDESEDRIYWQKHDKVVLSVIAGKLKVWPEYKNRTLYDNTTYSLIILGLVLSDRGTYSCVVQKKERGTYEVKHLALVKLSIKADFSTPNITESGNPSADTKRITCFASGGFPKPRFSWLENGRELPGINTTISQDPESELYTISSQLDFNTTRNHTIKCLIKYGDAHVSEDFTWEKPPEDPPDSKNTLVLFGAGFGAVITVVVIVVIIKCFCKHRSCFRRNEASRETNNSLTFGPEEALAEQTVFL
notes: whole, on cells; also called B7-1
Consider B3, for which the binding result is “binds” in assay [1], “binds” in assay [2], “no binding” in assay [3] and “no binding” in assay [4].
